From paper PMC5589570, “The antigenic identity of human class I MHC phosphopeptides is critically dependent upon phosphorylation status” (Oncotarget, 2017)
Square brackets hold non-standard residues; d marks the D form. Ends that are not written are not given here. pS = N[C@@H](COP(=O)(O)O)C(=O)O

B1: RQInp, unmodified peptide RQISQDVKL derived from adenosine monophosphate deaminase 2 (AMPD2) (peptide)
peptide: RQISQDVKL
notes: stretch of adenosine monophosphate deaminase 2 (AMPD2); also called non-phosphorylated RQI; source: synthetic peptide
B2: RQIp, phosphopeptide RQIpSQDVKL derived from adenosine monophosphate deaminase 2 (AMPD2) (peptide)
peptide: RQI[pS]QDVKL
notes: stretch of adenosine monophosphate deaminase 2 (AMPD2); source: synthetic peptide
B3: RQA_Vnp, unmodified peptide RQASIELPSMAV derived from Lymphocyte Specific Protein 1 (LSP-1) (peptide)
peptide: RQASIELPSMAV
notes: stretch of Lymphocyte Specific Protein 1 (LSP-1); source: synthetic peptide

Columns and labels:
[1] = target: HLA-A2 (heavy chain with β2-microglobulin) (human | , Heavy-chain limits are not given; taken from the longest deposited entity of this paper (mature 1-276, A*02:01). Bound peptide not included: the test peptide is the partner, and the affinity-assay c); assay: radioligand binding; competitive peptide binding assay: test peptide (100,000-fold concentration range, triplicate) displaces a radiolabeled peptide from HLA-A2 (refolded with […]); MHC-peptide complexes captured on plates coated with antibody W6/32; IC50 taken as a reasonable approximation of the dissociation constant; details: both partners purified
[2] = target: HLA-A2 (heavy chain with β2-microglobulin) (human | ); assay: as above; details: both partners purified

Binder | Kd [1] | Kd [2]
B1 | 1920 nM | 
B2 |  | 25.5 nM
B3 | 26 nM | 
